Measurements from US20210040206A1 (OSE IMMUNOTHERAPEUTICS, published 2021).

Columns and labels:
[1] = target: T1, human SIRPa v1 expressed by blood monocytes or monocyte-derived cells (V1/V1 donors) (human, UniProt P78324 31-504); test: FACS competition on human monocytes of V1/V1 donors; blocked ligand: biotinylated CD47Fc, revealed with streptavidin-PE
T1 construct: donors were typed on exon 3; also called variant 1
Method: (§1) METHOD: Human monocytes (purified by elutriation from human PBMC at DTC platform, Nantes, and frozen in DMSO at 10M/ml at −80° C. or liquid nitrogen) were thawed in 40 mL complete RPMI medium. Then immediately centrifuged at 1000 rpm during 10 minCells are resuspended in 10 mL of RPMI medium and counted on Malassez cell. Frozen human monocytes are thawed, diluted samples are added and biotinylated CD47Fc is added afterwards. […] The following protocol was applied: —Put 100,000 human monocytes per well on V-bottom P96 plate; —Centrifuge 1 min at 2500 rpm and empty wells by flicking the plate; —Wash cells 2 times with 200 μL PSE (Centrifuge 1 min at 2500 rpm and empty wells); —Prepare 8 dilutions of the sample beginning with 10 μg/mL (concentrated 2×, final concentration 5 μg/mL) and diluting by steps of 3; —Add 12.5 μL of sample/well on cells and mix; —Incubate 15 min on ice; —Prepare CD47Fc biotinylated solution concentrated 2×, determined in function of paragraph and add 12.5 μL of this solution/well on cells and mix.—Incubate 30 min on ice; —Add 175 μL PSE/w-Centrifuge 1 min at 2500 rpm and empty wells; —Wash cells 2 times with 200 μL PSE (Centrifuge 1 min at 2500 rpm and empty wells). An intermediate concentration is chosen for CD47Fc biotinylated. Here, 5 μg/mL CD47Fc biotinylated are took for the antagonist test. […]

[2] = target: T2, SIRPa V6 (SNP12 + 13) recombinant protein, extracellular domain fused with mouse Fc from IgG2a (human; mouse, UniProt P78324 31-373); test: ELISA on immobilised SIRPa variant-mouse Fc, donkey anti-human IgG peroxidase, TMB 450 nm; given as ED50
T2 construct: SNP13 is printed as 101 N without a change; not shown: mouse Fc from IgG2a
Method: (§2) FIG. 4. SIRPa variants binding study using anti-human SIRPa v1 antibody and Kwar antibody by Elisa. Assessment of the binding by ELISA on immobilized SIRPa mutated variants (SIRPa from v1 to v8, see Table 2 in example 1) linked to the mouse Fc domain. Anti-human SIRPa v1 antibody and Kwar antibody (known to bind both SIRPa v1 and SIRPa v2) were compared for their ability to bind the different SIRPa mutated variants.
(§3) Method: The binding activity of the anti-SIRPa antibodies was assessed by ELISA. For the ELISA assay, the in-house anti-human SIRPa v1 antibody and Kwar antibody were tested on 8 different mutated hSIRPa (SIRPA v1 to v8; see table 2). The different variants of mutated hSIRPa (SIRPa v1 to v8) were immobilized on plastic at 0.5 μg/ml in carbonate buffer (pH9.2) and the purified antibody was added to measure binding.

[3] = target: T3, SIRPa V3 (SNP1 + 2 + 3 + 4 + 5 + 6) recombinant protein, extracellular domain fused with mouse Fc from IgG2a (human; mouse, UniProt P78324 31-373); test: as above
T3 construct: SNP3 (51 A) is silent; not shown: mouse Fc from IgG2a
T3 chain: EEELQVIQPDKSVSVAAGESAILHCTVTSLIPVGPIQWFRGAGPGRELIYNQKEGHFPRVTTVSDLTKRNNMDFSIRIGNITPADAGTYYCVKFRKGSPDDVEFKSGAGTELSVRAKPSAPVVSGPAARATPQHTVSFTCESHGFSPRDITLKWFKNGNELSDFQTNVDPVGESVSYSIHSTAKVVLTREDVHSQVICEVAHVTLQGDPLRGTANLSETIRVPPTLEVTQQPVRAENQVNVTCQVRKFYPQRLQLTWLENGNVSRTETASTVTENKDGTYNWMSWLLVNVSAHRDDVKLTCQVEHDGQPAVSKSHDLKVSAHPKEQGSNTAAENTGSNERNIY
Method: as §2, §3

[4] = target: T4, SIRPa V5 (SNP9 + 10 + 11) recombinant protein, extracellular domain fused with mouse Fc from IgG2a (human; mouse, UniProt P78324 31-373); test: as above
T4 construct: SNP11 (97 T) is silent; not shown: mouse Fc from IgG2a
Method: as §2, §3

[5] = target: T5, SIRPa V7 (SNP14 + ?) recombinant protein, extracellular domain fused with mouse Fc from IgG2a (human; mouse, UniProt P78324 31-373); test: as above
T5 construct: not shown: mouse Fc from IgG2a
Method: as §2, §3

[6] = target: T6, SIRPa V1 recombinant protein (extracellular domain fused with mouse Fc from IgG2a) (human; mouse, UniProt P78324 31-373); test: as above
T6 construct: not shown: mouse Fc from IgG2a
Method: as §2, §3

[7] = target: T7, SIRPa V4 (SNP8) recombinant protein, extracellular domain fused with mouse Fc from IgG2a (human; mouse, UniProt P78324 31-373); test: as above
T7 construct: not shown: mouse Fc from IgG2a
Method: as §2, §3

[8] = target: T8, human SIRPa v2 expressed by blood monocytes (V2/V2 donors) (human, UniProt P78324 31-504); test: FACS competition on human monocytes of V2/V2 donors; blocked ligand: biotinylated CD47Fc, revealed with streptavidin-PE
T8 construct: also called variant 2; V2 protein
Method: as §1

T1 sequence (P78324 31-504 limits assumed): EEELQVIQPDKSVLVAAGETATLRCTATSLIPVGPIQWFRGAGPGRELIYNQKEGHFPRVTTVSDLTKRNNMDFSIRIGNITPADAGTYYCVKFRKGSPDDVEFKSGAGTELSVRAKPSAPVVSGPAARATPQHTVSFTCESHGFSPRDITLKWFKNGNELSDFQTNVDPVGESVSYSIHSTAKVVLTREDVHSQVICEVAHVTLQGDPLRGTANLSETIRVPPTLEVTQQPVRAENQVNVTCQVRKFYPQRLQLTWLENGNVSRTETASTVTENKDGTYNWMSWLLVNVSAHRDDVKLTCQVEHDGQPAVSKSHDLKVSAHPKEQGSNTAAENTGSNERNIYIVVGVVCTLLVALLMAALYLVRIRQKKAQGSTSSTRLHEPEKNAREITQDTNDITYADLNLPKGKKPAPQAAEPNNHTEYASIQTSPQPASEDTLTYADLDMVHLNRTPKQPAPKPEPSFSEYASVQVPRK

- IC50 (read off the curve) [1]: ~90 ng/mL
- EC50 [2]: 0.72 ng/mL
- EC50 [3]: 0.99 ng/mL
- EC50 [4]: 0.63 ng/mL
- EC50 [5]: 0.54 ng/mL
- EC50 [6]: 0.78 ng/mL
- EC50 [7]: 0.71 ng/mL
- IC50 (read off the curve) [8]: ~200 ng/mL
B1: in-house anti-human SIRPa v1 antibody (antibody, human IgG4, V domains shown)
VH: EVQLVQSGAEVKKPGESLRISCKASGYSFTSYWVHWVRQMPGKGLEWMGNIDPSDSDTHYSPSFQGHVTLSVDKSISTAYLQLSSLKASDTAMYYCVRGGTGTLAYFAYWGQGTLVTVSS
VL: DVVMTQSPLSLPVTLGQPASISCRSSQSLVHSYGNTYLYWFQQRPGQSPRLLIYRVSNRFSGVPDRFSGSGSGTDFTLKISRVEAEDVGVYYCFQGTHVPYTFGGGTKVEIK
notes: also called in-house anti-SIRPa v1 antibody; in-house antibody
